# Measurements taken from US20250197496A1 (EVOLVELMMUNE THERAPEUTICS, published 2025).
# Positions count from the first letter of the chain named.
# T1: Human ULBP2 (recombinant) (human, UniProt Q9BZM5 26-217)
# T1 construct: bought (R&D Systems) as ULBP2-Fc or ULBP2-His; also called recombinant ULBP2
# T1 sequence: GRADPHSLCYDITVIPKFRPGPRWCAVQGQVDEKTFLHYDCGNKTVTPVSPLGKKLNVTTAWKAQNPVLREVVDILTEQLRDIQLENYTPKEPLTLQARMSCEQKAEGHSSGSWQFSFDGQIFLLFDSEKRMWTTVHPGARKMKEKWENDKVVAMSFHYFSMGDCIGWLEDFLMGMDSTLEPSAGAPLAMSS
# B1: EIP0373 (bispecific antibody)
# heavy 1: EVQLLESGGGLVQPGGSLKLSCAASGFTFNTYAMNWVRKAPGKGLEWVARIRSKYNNYATYYADSVKDRFTISRDDSKNTAYLQMNNLKTEDTAVYYCVRHGNFGNSYVSWFAYWGQGTLVTVSSASTKGPSVFPLAPSSKSTSGGTAALGCLVKDYFPEPVTVSWNSGALTSGVHTFPACLQSSGLYSLSSVVTVPSSSLGTQTYICNVNHKPSNTKVDKKVEPKSSDKTHTCPPCPAPEAAGAPSVFLFPPKPKDTLMISRTPEVTCVVVDVSHEDPEVKFNWYVDGVEVHNAKTKPREEQYNSTYRVVSVLTVLHQDWLNGKEYKCKVSNKALPAPIEKTISKAKGQPREPQVCTLPPSREEMTKNQVSLSCAVKGFYPSDIAVEWESNGQPENNYKTTPPVLDSDGSFFLVSKLTVDKSRWQQGNVFSCSVMHEALHNHYTQKSLSLSPG
# light 1: ELVVTQEPSLTVSPGGTVTLTCRSSTGAVTTSNYANWVQDKPGQAPRGLIGGTNKRAPGTPARFSGSLLGGKAALTLSGVQPEDEAEYYCALWYSNLWVFGGGTKLTVLGQPKANPTVTLFPPSSEELQANKADLVCLISDFYPGAVTVAWKADGSPVKAGVETCKPSKQSNNKYAASSYLSLTPEQWKSHRSYSCQVTHEGSTVEKTVAPTESS
# heavy 2: not shown
# light 2: not shown
# notes: IgG1 bispecific, pairing set D; also called EGFR(Cetuximab)-SP34; V373
# B2: ULBP2xCD3 bispecific CD58 fusion containing CD3 variant CD3-01 (bispecific antibody, V domains shown)
# VH: EVQLLESGGGLVQPGGSLKLSCAASGFTFNTYAMNWVRKAPGKGLEWVARIRSKYNNYATYYADSVKDRFTISRDDSKNTAYLQMNNLKTEDTAVYYCVRHGNFGNSYVSWFAYWGQGTLVTVSS
# VL: ELVVTQEPSLTVSPGGTVTLTCRSSTGAVTTSNYANWVQDKPGQAPRGLIGGTNKRAPGTPARFSGSLLGGKAALTLSGVQPEDEAEYYCALWYSNLWVFGGGTKLTVL
# B3: ULBP2xCD3 bispecific CD58 fusion containing CD3 variant CD3-A2 (bispecific antibody, V domains shown)
# VH: B2 VH
# VL: B2 VL with G52D
# B4: ULBP2xCD3 bispecific CD58 fusion containing CD3 variant CD3-A6 (bispecific antibody, V domains shown)
# VH: B2 VH with T31D
# VL: B2 VL
# B5: ULBP2xCD3 bispecific CD58 fusion containing CD3 variant CD3-A8 (bispecific antibody, V domains shown)
# VH: B2 VH with R50K, N106D
# VL: B2 VL with N96Q
# B6: ULBP2xCD3 bispecific CD58 fusion containing CD3 variant CD3-A9 (bispecific antibody, V domains shown)
# VH: B2 VH with N103S
# VL: B2 VL with N96Q
# B7: ULBP2xCD3 bispecific CD58 fusion containing CD3 variant CD3-A5 (bispecific antibody, V domains shown)
# VH: B2 VH with N106D, S107D
# VL: B2 VL with N96Q
# B8: EIP0506 (bispecific antibody, human IgG1, kappa, lambda)
# heavy 1: B1 heavy 1
# light 1: B1 light 1
# heavy 2: QVQLVQSGAEVKKPGSSVKVSCKASGGTFSNYWMHWVRDAPGQGLEWMGATYRGHSDTYYNQKFKGRVTITADKSTSTAYMELSSLRSEDTAVYYCARGAIYDGYDVLDNWGQGTLVTVSSASTKGPSVFPLAPSSKSTSGGTAALGCLVDDYFPEPVTVSWNSGALTSGVHTFPAVLQSSGLYSLSSVVTVPSSSLGTQTYICNVNHKPSNTKVDKKVEPKSCDKTHTCPPCPAPEAAGAPSVFLFPPKPKDTLMISRTPEVTCVVVDVSHEDPEVKFNWYVDGVEVHNAKTKPREEQYNSTYRVVSVLTVLHQDWLNGKEYKCKVSNKALPAPIEKTISKAKGQPREPQVYTLPPCREEMTKNQVSLWCLVKGFYPSDIAVEWESNGQPENNYKTTPPVLDSDGSFFLYSKLTVDKSRWQQGNVFSCSVMHEALHNHYTQKSLSLSPG
# light 2: not shown
# notes: IgG1 bispecific, pairing set D; also called BCMA(Belantamab)-SP34; V506
# B9: EIP0504 (bispecific antibody, V domains shown)
# VH 1: B2 VH
# VL 1: B2 VL
# VH 2: EVQLVQSGAEVKKPGESLKISCKGSGYAFSTSWMNWVRQMPGKGLEWMGRIYPGDGDTNYNGNFKGQVTISADKSISTAYLQWSSLKASDTAMYYCARGGELRLEAMDSWGQGTLVTVSS
# VL 2: EIVMTQSPATLSLSPGERITLSCSASSSIHSNYLHWYQQKPGQAPRLLIYRTSNLASGIPARFSGSGSGTDFTLTISSLQPEDFAVYYCQQGFSIPFTFGQGTKLEIK
# notes: also called ULBP2(A06)-SP34; EV104.2:CD3.1
# Biological target: EGFR (UniProt P00533 25-645, limits assumed)
# Test: sandwich ELISA, plate coated with antigen (legend paragraph 82 names no antigen; EGFR taken as the antigen of the cetuximab arm), luminescence (RLU)
row,Binder,EC50 (read off the curve) [µg/mL]
1,B1,~0.3

# Biological target: T2, cynomolgus CD3 epsilon/delta heterodimer, biotin labeled (cynomolgus, UniProt Q95LI8 22-105, biotin labeled)
# T2 construct: bought (Acro Biosystems); also called Cyno CD3e/d
# T2 sequence (chain, as listed by the source mutant, chain 1 of 2): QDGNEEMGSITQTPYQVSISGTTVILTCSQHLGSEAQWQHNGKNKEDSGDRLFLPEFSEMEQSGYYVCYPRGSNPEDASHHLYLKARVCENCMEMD
# T2 sequence (Q95LI8 22-105, stated change not applied, chain 2 of 2): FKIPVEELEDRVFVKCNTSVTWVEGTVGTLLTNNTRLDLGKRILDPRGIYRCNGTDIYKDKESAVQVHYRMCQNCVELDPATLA
# Test: SPR, biotinylated CD3e/d on SA chip;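 also: analytes injected over immobilized CD3 heterodimer, association 60-120 s and dissociation 120-420 s, rate and affinity constants obtained by fitting sensorgrams to a 1:1 binding model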
Binder,Kd [nM],koff [s⁻¹],kon [M⁻¹ s⁻¹]
B2,3.2,0.00515,1.6e+06
B3,89,0.0227,256000
B4,75,0.0418,558000
B5,137,0.0614,448000
B6,212,0.0718,338000
B7,368,0.0337,91700

# Biological target: T3, human CD3 epsilon/delta heterodimer, biotin labeled (human, UniProt P04234 22-105, biotin labeled)
# T3 construct: bought (Acro Biosystems); also called Human CD3e/d
# Test: SPR, biotinylated CD3e/d on SA chip;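 also: analytes injected over immobilized CD3 heterodimer, association 60-120 s and dissociation 120-420 s, rate and affinity constants obtained by fitting sensorgrams to a 1:1 binding model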
Binder,Kd [nM],koff [s⁻¹],kon [M⁻¹ s⁻¹]
B2,4.7,0.00819,1.76e+06
B3,102,0.0263,257000
B4,75,0.0479,640000
B5,147,0.0635,432000
B6,155,0.101,654000
B7,354,0.0245,69200

# Biological target: T4, human CD3 epsilon (recombinant, plate-coated) (human, UniProt P07766 23-126)
# T4 construct: also called CD3ε; Hu CD3 epsilon
# Test: sandwich ELISA, plate coated with CD3ε, luminescence (RLU)
row,Binder,EC50 (read off the curve) [µg/mL]
1,B1,~0.3
2,B8,~0.5
3,B9,~0.4

# Biological target: T1, Human ULBP2 (recombinant)
# Test: sandwich ELISA, plate coated with antigen (legend paragraph 82 names no antigen; ULBP2 taken as the antigen of this antibody's target arm), luminescence (RLU)
row,Binder,EC50 (read off the curve) [µg/mL]
1,B9,~0.6
